Laboratory results published in paper PMC2063869 (The Journal of Cell Biology, 2006).

What was measured:
[1] = molecular target: T1, MBP-Apm1 (S. cerevisiae, UniProt Q00776 1-475); test: pull-down
T1 sequence (looked up): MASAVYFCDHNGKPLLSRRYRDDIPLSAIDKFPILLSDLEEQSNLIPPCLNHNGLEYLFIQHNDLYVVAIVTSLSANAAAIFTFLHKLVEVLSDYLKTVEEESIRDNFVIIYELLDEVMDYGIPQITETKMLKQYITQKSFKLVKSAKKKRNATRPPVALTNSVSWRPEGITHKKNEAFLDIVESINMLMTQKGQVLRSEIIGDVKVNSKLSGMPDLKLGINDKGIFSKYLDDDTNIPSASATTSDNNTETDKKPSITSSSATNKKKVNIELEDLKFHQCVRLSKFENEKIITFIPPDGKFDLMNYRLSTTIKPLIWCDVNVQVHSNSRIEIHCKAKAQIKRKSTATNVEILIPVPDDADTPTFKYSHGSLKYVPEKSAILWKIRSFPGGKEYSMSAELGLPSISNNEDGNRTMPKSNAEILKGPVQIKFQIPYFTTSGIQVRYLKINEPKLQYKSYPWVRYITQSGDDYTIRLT

[2] = molecular target: T2, MBP–Apm1-Δ2–158 (S. cerevisiae, UniProt Q00776 1-475, Δ2–158); test: pull-down
T2 sequence (looked up): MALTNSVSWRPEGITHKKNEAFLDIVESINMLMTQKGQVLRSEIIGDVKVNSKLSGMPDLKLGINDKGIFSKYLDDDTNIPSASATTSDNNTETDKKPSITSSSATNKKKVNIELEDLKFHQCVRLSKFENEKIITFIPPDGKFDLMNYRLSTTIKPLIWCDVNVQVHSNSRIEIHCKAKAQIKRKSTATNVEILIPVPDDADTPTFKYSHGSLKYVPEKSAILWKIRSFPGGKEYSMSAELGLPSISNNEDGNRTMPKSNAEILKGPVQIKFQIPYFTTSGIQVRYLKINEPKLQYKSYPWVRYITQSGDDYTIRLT

B1: Ste13-GST (Ste13p cytosolic domain, residues 1–118, fused to the NH2 terminus of GST) (domain or fragment, S. cerevisiae, UniProt P33894 1-118, looked up)
chain: MSASTHSHKRKNSHLFPQRKSSNSSMDKPFFPNNDSVANTDPQSNENGHTINEIRPTEATIDVTDVPQTPFLQEQYSMRPRRESFQFNDIENQHHTHSFFSVNKFNRRWGEWSLPEKR
- binding result [1]: binds
- binding result [2]: binds
